B1: Transcriptional regulator ERG, residues 117 to 197; numbered along this chain, P11308 (parent)
chain: NMTTNERRVIVPADPTLWSTDHVRQWLEWAVKEYGLPDVNILLFQNIDGKELCKMTKDDFQRLTPSYNADILLSHLHYLRE

± gives the uncertainty stated by the source.

The variants in this data set derive from B1. Nature of the data set: abundance fitness (aPCA) (normalised: wild type 0, dead -1); higher = more abundant; growth selection in yeast, the domain comes from the species named. To be noted: Homo sapiens.
Consider NMTTNERRVIVPADPTLWSTDSVRQWLEWAVKEYGLPDVNILLFQNIDGKELCKMTKDDFQRLTPSYNADILLSHLHYLRE, for which the abundance fitness is -0.357 ± 0.054.

As to NMTTNERRVIVPADPTLWSTDNVRQWLEWAVKEYGLPDVNILLFQNIDGKELCKMTKDDFQRLTPSYNADILLSHLHYLRE, the abundance fitness is 0.074 ± 0.066. In the case of NMTTNERRVIVPADPTLWSTDMVRQWLEWAVKEYGLPDVNILLFQNIDGKELCKMTKDDFQRLTPSYNADILLSHLHYLRE, the abundance fitness was -0.033 ± 0.054. NMTTNERRVIVPADPTLWSTDIVRQWLEWAVKEYGLPDVNILLFQNIDGKELCKMTKDDFQRLTPSYNADILLSHLHYLRE: the abundance fitness was -0.488 ± 0.13.

With NMTTNERRVIVPADPTLWSTDVVRQWLEWAVKEYGLPDVNILLFQNIDGKELCKMTKDDFQRLTPSYNADILLSHLHYLRE, the abundance fitness is -0.198 ± 0.041.

Take NMTTNERRVIVPADPTLWSTDWVRQWLEWAVKEYGLPDVNILLFQNIDGKELCKMTKDDFQRLTPSYNADILLSHLHYLRE: the abundance fitness was -0.55 ± 0.091.

Regarding NMTTNERRVIVPADPTLWSTDPVRQWLEWAVKEYGLPDVNILLFQNIDGKELCKMTKDDFQRLTPSYNADILLSHLHYLRE, the abundance fitness is -1.06 ± 0.18. For NMTTNERRVIVPADPTLWSTDTVRQWLEWAVKEYGLPDVNILLFQNIDGKELCKMTKDDFQRLTPSYNADILLSHLHYLRE, the abundance fitness was -0.324 ± 0.064. For the variant NMTTNERRVIVPADPTLWSTDGVRQWLEWAVKEYGLPDVNILLFQNIDGKELCKMTKDDFQRLTPSYNADILLSHLHYLRE, the abundance fitness was -0.18 ± 0.036. In the case of NMTTNERRVIVPADPTLWSTDYVRQWLEWAVKEYGLPDVNILLFQNIDGKELCKMTKDDFQRLTPSYNADILLSHLHYLRE, the abundance fitness is -0.672 ± 0.13. The value for NMTTNERRVIVPADPTLWSTDLVRQWLEWAVKEYGLPDVNILLFQNIDGKELCKMTKDDFQRLTPSYNADILLSHLHYLRE was -0.532 ± 0.065; that for NMTTNERRVIVPADPTLWSTDFVRQWLEWAVKEYGLPDVNILLFQNIDGKELCKMTKDDFQRLTPSYNADILLSHLHYLRE was -0.701 ± 0.2. For the variant NMTTNERRVIVPADPTLWSTDHNRQWLEWAVKEYGLPDVNILLFQNIDGKELCKMTKDDFQRLTPSYNADILLSHLHYLRE, the abundance fitness is -0.475 ± 0.24. With NMTTNERRVIVPADPTLWSTDHIRQWLEWAVKEYGLPDVNILLFQNIDGKELCKMTKDDFQRLTPSYNADILLSHLHYLRE, the abundance fitness is -0.5 ± 0.13. On to NMTTNERRVIVPADPTLWSTDHARQWLEWAVKEYGLPDVNILLFQNIDGKELCKMTKDDFQRLTPSYNADILLSHLHYLRE, for which the abundance fitness is -0.68 ± 0.077. For the variant NMTTNERRVIVPADPTLWSTDHDRQWLEWAVKEYGLPDVNILLFQNIDGKELCKMTKDDFQRLTPSYNADILLSHLHYLRE, the abundance fitness is -0.781 ± 0.18. In the case of NMTTNERRVIVPADPTLWSTDHCRQWLEWAVKEYGLPDVNILLFQNIDGKELCKMTKDDFQRLTPSYNADILLSHLHYLRE, the abundance fitness was -0.328 ± 0.095. The value for NMTTNERRVIVPADPTLWSTDHQRQWLEWAVKEYGLPDVNILLFQNIDGKELCKMTKDDFQRLTPSYNADILLSHLHYLRE was -1.04 ± 0.24.

For the variant NMTTNERRVIVPADPTLWSTDHRRQWLEWAVKEYGLPDVNILLFQNIDGKELCKMTKDDFQRLTPSYNADILLSHLHYLRE, the abundance fitness was -1.04 ± 0.13.

As to NMTTNERRVIVPADPTLWSTDHGRQWLEWAVKEYGLPDVNILLFQNIDGKELCKMTKDDFQRLTPSYNADILLSHLHYLRE, the abundance fitness is -0.997 ± 0.09. In the case of NMTTNERRVIVPADPTLWSTDHKRQWLEWAVKEYGLPDVNILLFQNIDGKELCKMTKDDFQRLTPSYNADILLSHLHYLRE, the abundance fitness is -0.991 ± 0.2. NMTTNERRVIVPADPTLWSTDHYRQWLEWAVKEYGLPDVNILLFQNIDGKELCKMTKDDFQRLTPSYNADILLSHLHYLRE: the abundance fitness was -0.905 ± 0.32. For the variant NMTTNERRVIVPADPTLWSTDHLRQWLEWAVKEYGLPDVNILLFQNIDGKELCKMTKDDFQRLTPSYNADILLSHLHYLRE, the abundance fitness is -0.874 ± 0.14. Turning to NMTTNERRVIVPADPTLWSTDHTRQWLEWAVKEYGLPDVNILLFQNIDGKELCKMTKDDFQRLTPSYNADILLSHLHYLRE, the abundance fitness is -0.167 ± 0.066. Take NMTTNERRVIVPADPTLWSTDHSRQWLEWAVKEYGLPDVNILLFQNIDGKELCKMTKDDFQRLTPSYNADILLSHLHYLRE: the abundance fitness was -0.761 ± 0.13. The value for NMTTNERRVIVPADPTLWSTDHWRQWLEWAVKEYGLPDVNILLFQNIDGKELCKMTKDDFQRLTPSYNADILLSHLHYLRE was -0.798 ± 0.14. In the case of NMTTNERRVIVPADPTLWSTDHPRQWLEWAVKEYGLPDVNILLFQNIDGKELCKMTKDDFQRLTPSYNADILLSHLHYLRE, the abundance fitness is -0.877 ± 0.2. The value for NMTTNERRVIVPADPTLWSTDHHRQWLEWAVKEYGLPDVNILLFQNIDGKELCKMTKDDFQRLTPSYNADILLSHLHYLRE was -0.846 ± 0.31; that for NMTTNERRVIVPADPTLWSTDHVRYWLEWAVKEYGLPDVNILLFQNIDGKELCKMTKDDFQRLTPSYNADILLSHLHYLRE was -0.07 ± 0.073; that for NMTTNERRVIVPADPTLWSTDHVRSWLEWAVKEYGLPDVNILLFQNIDGKELCKMTKDDFQRLTPSYNADILLSHLHYLRE was -0.05 ± 0.046. As for NMTTNERRVIVPADPTLWSTDHVRCWLEWAVKEYGLPDVNILLFQNIDGKELCKMTKDDFQRLTPSYNADILLSHLHYLRE, the abundance fitness is -0.015 ± 0.073.

For NMTTNERRVIVPADPTLWSTDHVRHWLEWAVKEYGLPDVNILLFQNIDGKELCKMTKDDFQRLTPSYNADILLSHLHYLRE, the abundance fitness was -0.046 ± 0.074. NMTTNERRVIVPADPTLWSTDHVRRWLEWAVKEYGLPDVNILLFQNIDGKELCKMTKDDFQRLTPSYNADILLSHLHYLRE: the abundance fitness is -0.003 ± 0.034. Take NMTTNERRVIVPADPTLWSTDHVRNWLEWAVKEYGLPDVNILLFQNIDGKELCKMTKDDFQRLTPSYNADILLSHLHYLRE: the abundance fitness was -0.214 ± 0.076.
